What was measured:
Experiment in all cases: SPR (Biacore T200), TREM1 ECD over antibody captured by anti-human Fc
[1] = target: T1, marmoset TREM1 ECD (in house, His tagged) (marmoset, UniProt A0A8I3WDM5 21-206)
T1 construct: extracellular domain
T1 sequence: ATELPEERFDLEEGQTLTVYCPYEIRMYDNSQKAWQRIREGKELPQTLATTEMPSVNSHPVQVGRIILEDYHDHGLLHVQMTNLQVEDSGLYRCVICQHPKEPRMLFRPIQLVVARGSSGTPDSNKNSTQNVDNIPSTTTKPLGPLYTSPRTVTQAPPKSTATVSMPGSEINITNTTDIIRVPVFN
Procedure: (§1) The species tested were human, cynomolgus, rhesus, marmoset, rat, mouse, dog and pig.
(§2) TREM1 ECD analyte (in house, His tagged) was injected at 3-fold serial dilutions in HBS-EP+ running buffer (GE Healthcare), top concentrations are shown in Table 15, and three-fold serial dilutions were performed to a bottom concentration of 2 nM. Buffer blank injections were included to subtract instrument noise and drift.

[2] = target: T2, pig TREM1 ECD (in house, His tagged) (pig, UniProt Q6TYI6 21-210)
T2 construct: extracellular domain
T2 sequence (looked up): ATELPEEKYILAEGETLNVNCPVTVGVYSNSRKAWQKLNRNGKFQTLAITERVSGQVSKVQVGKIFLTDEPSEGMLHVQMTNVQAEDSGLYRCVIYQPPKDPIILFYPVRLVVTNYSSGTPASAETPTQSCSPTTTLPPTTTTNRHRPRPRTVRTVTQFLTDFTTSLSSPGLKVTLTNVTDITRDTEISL
Procedure: as §1, §2

[3] = target: T3, mouse TREM1 ECD (in house, His tagged) (mouse, UniProt Q9JKE2 21-202)
T3 construct: extracellular domain
T3 sequence (looked up): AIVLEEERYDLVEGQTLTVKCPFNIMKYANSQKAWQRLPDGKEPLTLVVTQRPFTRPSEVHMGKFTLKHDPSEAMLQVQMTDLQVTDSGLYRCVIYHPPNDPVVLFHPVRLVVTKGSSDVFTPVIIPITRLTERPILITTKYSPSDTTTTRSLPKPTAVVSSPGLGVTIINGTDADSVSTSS
Procedure: as §1, §2

- binding result [1]: no binding (tested: 510 nM)
- binding result [2]: no binding (tested: 490 nM)
- binding result [3]: no binding (tested: 520 nM)
B1: 12172 gL2gH11 hIgG4P (antibody)
heavy: not shown
light: DIQLTQSPSFLSASVGDRVTITCQASQNIGSDLAWYQQKPGKAPKLLIYKAATLASGVPSRFSGSGSGTEFTLTISSLQPEDFATYYCQQYYYGSAGADTDTFGGGTKVEIKRTVAAPSVFIFPPSDEQLKSGTASVVCLLNNFYPREAKVQWKVDNALQSGNSQESVTEQDSKDSTYSLSSTLTLSKADYEKHKVYACEVTHQGLSSPVTKSFNRGEC
notes: Humanised IgG4P, human kappa; also called 12172gL2gH11 IgG4P

Source: patent publication US20240254224A1 (UCB, published 2024)
